Laboratory results reported in patent US20230090311A1, “SELF-ASSEMBLING, SELF-A[…] FOR […] OF VACCINES” (THE UNIVERSITY OF QUEENSLAND, priority 2020, published 2023).
Where “and” joins values, the source holds several entries; their conditions need not be identical. Equal values may be shown once. Entries after “also recorded” stand apart in the source; their conditions may differ. No end group written: not given here.

What was measured:
RBD = conditions: 30 μg with CFA, single s.c. immunization; serum day 14
B1 = conditions: 30 μg with CFA, single s.c. immunization
p145 = conditions: second animal study
J8 = assay type: in vivo, C57BL/6 mice; conditions: first animal study (epitope arrangement); 50 μg s.c., days 0, 21, 28, 35; listed as Conjugate 3
[1] = Dynamic Light Scattering, Example 5; assay type: physicochemical; conditions: for Polydispersity index (PDI): DLS; for Particle size (nm) DLS: size as measured by intensity, 1-4 1 mg/mL, 5-11 2 mg/mL in PBS
Description: Dynamic Light Scattering. Individual compounds 1-4 (1 mg/mL in PBS) and 5-11 (2 mg/mL in PBS) were analyzed using DLS to measure particle size (zeta intensity) and PDI. The samples were treated with ultrasonication for 30 min, then transferred into disposable cuvettes. Measurement were taken at 25° C. and […] light scattering. DLS measurements were taken using a Zetasizer Nano ZP instrument (Malvern Instrument, UK) with Malvern Zetasizer Analyser 6.2 software.

[2] = Transmission Electron Microscopy, Example 5; assay type: physicochemical; conditions: negative staining; NP = nanoparticles, CLANs = chain like aggregates of nanoparticles
From the text: Transmission Electron Microscopy. Particle-imaging was captured using a JEM-1010 TEM (HT7700 Exalens, HITACHI Ltd., JEOL Ltd., Japan) operated at 80 kV, using negative staining. Samples of compounds 1-11 (1:2 dilution of samples prepared for DLS analysis) were applied to glow-discharged carbon-coated copper 200-mesh grids (Ted Pella) and negative-stained with 2% phosphotungstic acid.

[3] = system: E749-57 (RAHYNIVTF) peptide-specific CD8+ T-cell response; test: IFN-gamma ELISPOT assay; assay type: in vivo, C57BL/6 mice; conditions: splenocytes ten days after immunisation, restimulated with E7 peptide
Description: The mice received single dose of vaccine.
ELISPOT plates were coated with 5 μg mL-1 IFN-g capture antibody (clone) in PBS at 4° C. overnight. The plates were then blocked with RPM/20% FCs at room temperature for 3 hours. Splenocytes from C57/BL/6 mice were harvested from the spleens of naïve and immunised mice. The red blood cells were depleted using red blood cell lysing buffer (0.155 M ammonium chloride in 0.01 M Tris-HCl buffer, Sigma). Splenocytes were then resuspended in RPMI (sigma) supplemented with 20% FACs (100 UmL-1 penicillin and 100 μg mL-1 streptomycin and 50 μM b-mercaptoethanol. The cells were plated at 5×10^5 cells per well in triplicate on ELISPOT plates. E7 peptide (10 μg mL-1) was added alongside 10 ng mL-1 rhIL-2 to a final volume of 200 μL per well. Plates were incubated for 8 hours at 37 C, washed and biotinylated IFN-g detection antibody in 1% BSA added at room temperature, plates were washed again and bound cytokine was visualised with 3-amino-9ethylcarbozole. Spots were counted with an ELISPOT reader.

[4] = Characterisation of nanoliposomes by DLS, Example 2; assay type: physicochemical
Description: The particle size, zeta potential and polydispersity of vaccine candidates were measured by dynamic light scattering (DLS) using zetasizer (Nano ZX, Marvern, England). The particle morphology of vaccine candidates was examined using transmission electron microscope (TEM) (HT7700 Exalens, HITACHI Ltd., Japan) after vacuum-drying. Briefly, the sample were diluted in pure distilled water (1:100) and dropped directly on a glow-discharged carbon coated copper grid and then stained with 2% uranyl acetate.

TC-1 tumour cells = test: In vivo tumour treatment experiments

Substance: AIHADQLTPTWRVYSTG [Compound B1]
- anti-RBD IgG (RBD): did not generate anti-RBD IgG
- antibody titers against the epitope itself (B1): did not generate significant antibody titers against itself

Substance: AKFVAAWTLKAAAQAEDKVKQSREAKKQVEKALKQLEDKVQ [Compound 1]
- p145-specific serum IgG antibodies (p145): less efficient or completely unable to recognize p145

Substance: Ac-(Leu)15-PADRE-K-J8 (Ac-LLLLLLLLLLLLLLLAKFVAAWTLKAAAKQAEDKVKQSREAKKQVEKALKQLEDKVQ) [Compound 3]
- J8-specific serum IgG antibody titers (J8): significant immunoglobulin G (IgG) titers after the primary immunization; also recorded: higher antibody titers than the previously identified lead vaccine candidate (2)

Substance: Ac-(Phe-Leu-Ala)5-PADRE-J8 (Ac-FLAFLAFLAFLAFLAAKFVAAWTLKAAAQAEDKVKQSREAKKQVEKALKQLEDKVQ) [Compound 11]
- Polydispersity index (PDI) [1]: 0.44 ± 0.02
- Particle size (nm) DLS [1]: 255 ± 9 nm
- Particle size (nm) TEM [2]: 10-20 nm NP and CLANs

Substance: Ac-(Ser)15-PADRE-J8 (Ac-SSSSSSSSSSSSSSSAKFVAAWTLKAAAQAEDKVKQSREAKKQVEKALKQLEDKVQ) [Compound 10]
- Polydispersity index (PDI) [1]: 0.31 ± 0.02
- Particle size (nm) DLS [1]: 240 ± 9 nm
- Particle size (nm) TEM [2]: 10-90 nm NP and CLANs

Substance: LLLLLLLLLLQAEPDRAHYNIVTF [Leu-8Qm]
- IFN-gamma production (ELISPOT) [3]: significantly produced IFN levels
- PDI ([4]; DLS): 0.6 and 0.6 ± 0.1
- Size ([4]; DLS): 4000 ± 150 nm
- Charge ([4]; zeta potential): −10 mV and −10 ± 5 mV
- survival of tumour-bearing mice (TC-1 tumour cells; single dose 100 μg on day 7 after TC-1 inoculation): increased survival rate of tumour infected mice
- day by which tumours of all mice exceeded 1 cm^3 (TC-1 tumour cells; single dose on day 7 after TC-1 inoculation): 57 days
